Measurements: US20160151410A1, “CLEARANCE OF BIOACTIVE LIPIDS FROM MEMBRANE STRUCTURES BY CYCLODEXTRINS” (The Trustees of Columbia University in the City of New York, priority 2013, published 2016)

Assays:
Assay type in all cases: biochemical
[1] = Triglyceride hydrolase activity assay; details: amount of enzyme used for LDL digestion
Method: (§1) Triglyceride hydrolase activity of CEase and LIPC was determined with DMPTB as substrate according to Choi et al. (Choi et al., 2003) Phospholipase A activity of CEase and LIPC was assayed similarly as triglyceride hydrolase activity but with 1.5 mM of 1,2-bis(heptanoylthio)glycerophosphocholine as substrate and assay buffer containing 10 mM of CaCl2 instead of 1 mM of EDTA.

[2] = Phospholipase A activity assay; details: amount of enzyme used for LDL digestion
Method: as §1

[3] = tested on: classical pathway of complement system; test: Complement activation (C3 fixation) by LIPC- or CEase-digested immobilized LDL with human serum; details: 0-50 μg/ml LIPC; 0-2 hours
Method: 96-well MaxiSorp plates were coated with fresh human LDL (A, D, E), VLDL (B), or NaOH-hydrolyzed LDL (C). After blocking with BSA, the plates, except (C), were digested with LIPC. To test complement activation, the plates were incubated with diluted native human serum (N), C1q-depleted human serum (Cd), factor B-depleted human serum (Bd), or human serum containing Mg-EGTA (ME). C3 fixation on the plate was detected with a monoclonal anti-C3d antibody followed by HRP-conjugated secondary antibody. Specific conditions for LIPC digestion and HRP-catalyzed color development of each experiment were outlined as following: LIPC was used at 10 μg/ml for (A, B, E), 0-50 μg/ml for (D), and no LIPC for (C). LIPC degradation was 1 hour for (D), 2 hours for (A, B), and 0-2 hours for (E). Color development was 15 minutes for (A, B, C, E) and 10 minutes for (D). For NaOH hydrolysis of LDL, 1.35 mg/ml of LDL was incubated in 0.15M NaOH solution at 25° C. for up to 60 minutes. Aliquots were taken out and neutralized with 0.15M HCl at 1, 10, 20, 60 minutes.
LIPC and CEase, both having 8 μUnits of phospholipase A1 activity but having 3 μUnits and 8125 μUnits of triglyceride hydrolase activity respectively, were used for 2 hours digestion of immobilized LDL. Complement activation with diluted native human serum is then determined as in FIG. 1. The HRP-catalyzed color development was 15 minutes.
Human LDL coating and 1 hour (C) or 2 hours (A, B) LIPC digestion was performed as described in FIG. 1. (A) For complement activation, 0-50 μM of phosphocholine was added into diluted native human serum. […]
After thorough washing of the plate, C3 fixation and final membrane attack complex formation on the plate were determined with anti-human C3d antibody and anti-human C5b-9 antibody, in combination with HRP-conjugated secondary antibody, respectively. […] The final peroxidase activity was monitored at 450 nm with 3,3′,5,5′-tetramethyl-benzidine and hydrogen peroxide as substrates after 10 or 15 minutes reaction at room temperature.

B1: LIPC: recombinant human LIPC (hepatic lipase) (protein, UniProt P11150 23-499, looked up)
Hepatic triacylglycerol lipase: LGQSLKPEPFGRRAQAVETNKTLHEMKTRFLLFGETNQGCQIRINHPDTLQECGFNSSLPLVMIIHGWSVDGVLENWIWQMVAALKSQPAQPVNVGLVDWITLAHDHYTIAVRNTRLVGKEVAALLRWLEESVQLSRSHVHLIGYSLGAHVSGFAGSSIGGTHKIGRITGLDAAGPLFEGSAPSNRLSPDDANFVDAIHTFTREHMGLSVGIKQPIGHYDFYPNGGSFQPGCHFLELYRHIAQHGFNAITQTIKCSHERSVHLFIDSLLHAGTQSMAYPCGDMNSFSQGLCLSCKKGRCNTLGYHVRQEPRSKSKRLFLVTRAQSPFKVYHYQFKIQFINQTETPIQTTFTMSLLGTKEKMQKIPITLGKGIASNKTYSFLITLDVDIGELIMIKFKWENSAVWANVWDTVQTIIPWSTGPRHSGLVLKTIRVKAGETQQRMTFCSENTDDLLLRPTQEKIFVKCEIKSKTSKRKIR
TGhydrolase activity [1]: 3 μUnits
PLA1 activity [2]: 8 μUnits
complement activation, dependence on LIPC degradation [3]: both dose and time-dependent
